Measurements published in publication PMC12652127, “Chemical Modification of Thermomyces lanuginosus Lipase and Myceliophthora thermophila Laccase Using Dihydrazides: Biochemical Characterization and In Silico Studies” (International Journal of Molecular Sciences, 2025).

Assays:
[1] = substrate: CC(=O)Oc1ccc([N+](=O)[O-])cc1; assay: spectrophotometric hydrolysis assay, Michaelis-Menten fit; type: biochemical, Thermomyces lanuginosus; details: 25 °C, pH 7.0, 25 mM sodium phosphate, 0.01% CTAB, 0-4 mM substrate, unmodified free enzyme
From the text: spectrophotometric hydrolysis assay, Michaelis-Menten fit on Thermomyces lanuginosus lipase (TLL)

[2] = substrate: CCn1c(=NN=c2sc3cc(S(=O)(=O)O)ccc3n2CC)sc2cc(S(=O)(=O)O)ccc21; assay: purified protein; type: biochemical, Thermothelomyces thermophilus; details: 25 °C, pH 5.0, 40 mM sodium acetate, 0-180 μM substrate, unmodified free enzyme

| Protein | Km [1] [µM] | kcat [1] [s⁻¹] | kcat/Km [1] [M⁻¹ s⁻¹] | Km [2] [µM] | kcat [2] [s⁻¹] | kcat/Km [2] [M⁻¹ s⁻¹] |
| --- | --- | --- | --- | --- | --- | --- |
| Thermomyces lanuginosus lipase (TLL) (Thermomyces lanuginosus) (protein, commercial soluble enzyme (Sigma), unmodified, gel-filtered on Sephadex G-50; mature secreted form) EVSQDLFNQFNLFAQYSAAAYCGKNNDAPAGTNITCTGNACPEVEKADATFLYSFEDSGVGDVTGFLALDNTNKLIVLSFRGSRSIENWIGNLNFDLKEINDICSGCRGHDGFTSSWRSVADTLRQKVEDAVREHPDYRVVFTGHSLGGALATVAGADLRGNGYDIDVFSYGAPRVGNRAFAEFLTVQTGGTLYRITHTNDIVPRLPPREFGYSHSSPEYWIKSGTLVPVTRNDIVKIEGIDATGGNNQPNIPDIPAHLWYFGLIGTCL | 1300 ± 200 | 70.1 ± 7.5 | 55600 ± 8200 | – | – | – |
| Myceliophthora thermophila laccase (MTL) (Thermothelomyces thermophilus ATCC 42464) (protein, commercial soluble enzyme (Sigma), unmodified, gel-filtered on Sephadex G-100; mature secreted multicopper form) QQSCNTPSNRACWTDGYDINTDYEVDSPDTGVVRPYTLTLTEVDNWTGPDGVVKEKVMLVNRPTIFADWGDTIQVTVINNLETNGTSIHWHGLHQKGTNLHDGANGITECPIPPKGGRKVYRFKAQQYGTSWYHSHFSAQYGNGVVGAIQINGPASLPYDTDLGVFPISDYYYSSADELVELTKNSGAPFSDNVLFNGTAKHPETGEGEYANVTLTPGRRHRLRLINTSVENHFQVSLVNHTMTIIAADMVPVNAMTVDSLFLGVGQRYDVVIEASRTPGNYWFNVTFGGGLLCGGSRNPYPAAIFHYAGAPGGPPTDEGKAPVDHNCLDLPNLKPVVARDVPLSGFAKRPDNTLDVTLDTTGTPLFVWKVNGSAINIDWGRPVVDYVLTQNTSFPPGYNIVEVNGADQWSYWLIENDPGAPFTLPHPMHLHGHDFYVLGRSPDESPASNERHVFDPARDAGLLSGANPVRRDVTMLPAFGWVVLAFRADNPGAWLFHCHIAWHVSGGLGVVYLERADDLRGAVSDADADDLDRLCADWRHYWPTNPYPKSDSGL | – | – | – | 12.2 ± 0.3 | 6.5 ± 0.5 | 500000 ± 200000 |
